Source: US20140030274A1

Columns and labels:
Aβ(M1-40) (human) = experiment: cell-based or functional assay
Aβ(M1-42) (human) = experiment: cell-based or functional assay
Aβ(M1-42) (human), sequence (peptide, as listed by the source): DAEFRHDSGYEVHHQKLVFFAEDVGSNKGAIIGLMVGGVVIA

Aβ(M1-40) (human), sequence (peptide, as listed by the source): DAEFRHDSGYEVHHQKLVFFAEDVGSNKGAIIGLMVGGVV

## human anti-thrombin (from UniProt P01008 33-464)
Aβ(M1-40) (human)
  molar equivalents needed for the same inhibition of Aβ40 aggregation (ThT assay) (molar equivalents): 0.01
Aβ(M1-42) (human)
  effect on Aβ42 aggregation (ThT assay) (molar equivalents): 0.1
